The values that follow come from the supplement of paper PMC9732359.

The data set in a line: protein stability index of a GFP-peptide fusion (yeast GPS) (PSI 1-4); higher = more stable; sorted into four equal gates, so the index is relative within each strain. The essentials:
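Plasmids in a pooled yeast library fused tiled 17-residue yeast protein peptides downstream of GFP and also expressed Cherry. Mid-log cultures grown without leucine were sorted into four equal gates by GFP/Cherry fluorescence ratio. Each gate's plasmids were PCR-amplified and Illumina-sequenced, and reads were matched to strains by barcodes. The protein stability index is derived by multiplying each gate's read frequency by its gate number and summing the results.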

± gives the uncertainty stated by the source.

Consider ASQPEPTTNEPAKPALS [YJL041W/NSP1], for which the protein stability index by setting is: (doa10∆) 2.81 ± 0.097; (pdr5∆) 3.14 ± 0.077; (san1∆) 2.92 ± 0.059; (ubr1∆) 3.12 ± 0.06.
For ATAALEIILKLCRNPLT [YJL039C/NUP192], in that order: 2.03 ± 0.065, 1.95 ± 0.063, 1.25 ± 0.098 and 2.38 ± 0.059.
For ATANATANATAELNLPT [SNF11], in that order: 3.096 ± 0.028, 3.265 ± 0.029, 3.212 ± 0.032 and 3.282 ± 0.02.
Turning to ATGFGAHMANPLLRKVV [PRE4], the protein stability index runs as follows: (doa10∆) 3.29 ± 0.14; (pdr5∆) 3.02 ± 0.13; (san1∆) 1.58 ± 0.17; (ubr1∆) 3.34 ± 0.18.
Consider ATLNYIDKNHGFERLTV [SRB7], for which the protein stability index came to 3.28 ± 0.15 (pdr5∆) and 3.49 ± 0.13 (ubr1∆).
As to ATLSKLKKKYQIILDRF [SIR3], the protein stability index by setting is: (doa10∆) 2.32 ± 0.065; (pdr5∆) 1.95 ± 0.073; (san1∆) 1.75 ± 0.12; (ubr1∆) 1.71 ± 0.061.
For ATMENIQKGKFTLLDFK [SRP54], in that order: 2.98 ± 0.068, 3.04 ± 0.081, 2.42 ± 0.089 and 2.96 ± 0.046.
As to ATSTKVSVEGVNVEKFN [RPL6A], the protein stability index worked out at 2.88 ± 0.11 (doa10∆), 3.4 ± 0.11 (pdr5∆), 3.31 ± 0.059 (san1∆) and 3.16 ± 0.1 (ubr1∆).
ATVEECVKLTVRSLLEV [PRE6]: the protein stability index is 1.53 ± 0.052 (doa10∆), 1.72 ± 0.064 (pdr5∆), 1.88 ± 0.12 (san1∆) and 1.47 ± 0.055 (ubr1∆).
For ATVLSRKILKKTFKNPK [RPN5], in that order: 2.4 ± 0.044, 2.67 ± 0.047, 2.55 ± 0.057 and 2.87 ± 0.037.
With AVAEAYNNRSLLDFNTA [RPN6], the protein stability index was 3.16 ± 0.081 (doa10∆), 2.98 ± 0.077 (pdr5∆), 3.11 ± 0.066 (san1∆) and 3.25 ± 0.11 (ubr1∆).
For AVGAHSDLLKVLKSKKL [RPL4A], in that order: 3.13 ± 0.14, 3.14 ± 0.13, 2.61 ± 0.16 and 2.82 ± 0.062.
For AVHNGDRKHVAALRTVK [RPL9B], in that order: 2.09 ± 0.064, 2.23 ± 0.076, 2.36 ± 0.061 and 2.71 ± 0.049.
For AVHSIIALSRRFLLNGR [YDL116W/NUP84], in that order: 2.11 ± 0.086, 1.56 ± 0.069, 2.06 ± 0.14 and 1.99 ± 0.085.
For AVKYGLNHVVALIENKK [RPL8A], the protein stability index came to 2.26 ± 0.19 (doa10∆), 2.48 ± 0.12 (pdr5∆) and 2.45 ± 0.067 (ubr1∆).
Regarding AVLNVSPVYDVDPRIIN [NUT1], the protein stability index by setting is: (doa10∆) 2.2 ± 0.078; (pdr5∆) 2.29 ± 0.064; (san1∆) 1.82 ± 0.091; (ubr1∆) 2.17 ± 0.06.
For AVNLLNCPHSDSTQLLE [SSN2], in that order: 2.67 ± 0.15, 3.3 ± 0.092, 3.51 ± 0.15 and 2.9 ± 0.072.
For CCYFIEWKSNHKKKRSN [SRB8], in that order: 1.81 ± 0.048, 2.08 ± 0.054, 2.1 ± 0.073 and 1.92 ± 0.048.
For CDLDFPLRENTNVLDVK [YDL116W/NUP84], in that order: 2.72 ± 0.065, 2.36 ± 0.055, 2.36 ± 0.077 and 2.56 ± 0.037.
Turning to CDQTKSVPLMINAKNIA [RRP43], the protein stability index came out at 1.74 ± 0.061 (doa10∆), 2.21 ± 0.078 (pdr5∆), 1.53 ± 0.11 (san1∆) and 1.61 ± 0.068 (ubr1∆).
For CFVHRYKDVSDLIRSES [IRR1], in that order: 2.67 ± 0.082, 2.7 ± 0.061, 2.89 ± 0.056 and 2.89 ± 0.06.
For CIVDFTNPKLKSEFDDL [YMR129W/POM152], in that order: 1.81 ± 0.067, 2.1 ± 0.074, 1.82 ± 0.13 and 1.69 ± 0.052.
For CKKNTKKCLKLAYENKI [POP4], in that order: 2.77 ± 0.068, 2.7 ± 0.076, 2.87 ± 0.057 and 3.13 ± 0.067.
In the case of CKLTLDINVELFPVAAQ [RPB8], the protein stability index is 2.57 ± 0.063 (doa10∆), 2.24 ± 0.079 (pdr5∆), 2.43 ± 0.078 (san1∆) and 2.96 ± 0.05 (ubr1∆).
For CKQVHDKLTSIQDTLRT [MED7], in that order: 2.68 ± 0.074, 2.85 ± 0.048, 2.67 ± 0.044 and 2.81 ± 0.053.
For CNAQPITRSVMRFNIEI [BRR2], in that order: 2.71 ± 0.082, 2.82 ± 0.066, 2.77 ± 0.058 and 3.02 ± 0.064.
